In the supplement of paper PMC9732359:
± gives the uncertainty stated by the source.

Assay: protein stability index of a GFP-peptide fusion (yeast GPS) (PSI 1-4); higher = more stable; sorted into four equal gates, so the index is relative within each strain
Outline: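 Peptides tiling yeast proteins in 17-residue segments were fused downstream of GFP, with Cherry expressed from the same plasmid. As a pooled library in yeast, mid-log cultures grown in leucine-free medium were sorted into four equal gates by GFP/Cherry fluorescence ratio. Gate plasmids were PCR-amplified and Illumina-sequenced, and barcodes linked reads to strains. Each peptide received a protein stability index equal to the sum of each gate's read frequency times its gate number.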

## ERSKQLNEKFQELRKKV [SMC2]
pdr5∆
  protein stability index: 2.78 ± 0.24
san1∆
  protein stability index: 3.33 ± 0.097
ubr1∆
  protein stability index: 2.81 ± 0.15

## LEVANDLQLLYVESDED [IRR1]
doa10∆
  protein stability index: 1.43 ± 0.13
pdr5∆
  protein stability index: 1.21 ± 0.091
san1∆
  protein stability index: 1.42 ± 0.2
ubr1∆
  protein stability index: 1.13 ± 0.046

## KSLGVKSLGGGAALKDI [FAS2]
doa10∆
  protein stability index: 3 ± 0.051
pdr5∆
  protein stability index: 2.25 ± 0.049
san1∆
  protein stability index: 2.41 ± 0.048
ubr1∆
  protein stability index: 2.86 ± 0.057

## DDTAANNGDKDHLKLVS [YIL149C/MLP2]
doa10∆
  protein stability index: 3.25 ± 0.12
pdr5∆
  protein stability index: 3.35 ± 0.11
san1∆
  protein stability index: 2.81 ± 0.12
ubr1∆
  protein stability index: 3.2 ± 0.087

## RENGKGGQIAHILFQNN [ROX3]
doa10∆
  protein stability index: 1.88 ± 0.062
pdr5∆
  protein stability index: 2.32 ± 0.06
san1∆
  protein stability index: 2.75 ± 0.061
ubr1∆
  protein stability index: 2.48 ± 0.12

## REIQTAVRLILPGELAK [HTB1]
doa10∆
  protein stability index: 3.25 ± 0.088
pdr5∆
  protein stability index: 3.14 ± 0.06
san1∆
  protein stability index: 2.55 ± 0.088
ubr1∆
  protein stability index: 3.08 ± 0.051

## SFELKEEDISDLWNNFG [RRP6]
doa10∆
  protein stability index: 2.85 ± 0.1
pdr5∆
  protein stability index: 3.1 ± 0.12
san1∆
  protein stability index: 2.47 ± 0.091
ubr1∆
  protein stability index: 3.26 ± 0.073

## YGRDDMENIKKSIDSKT [ISW2]
doa10∆
  protein stability index: 2.87 ± 0.11
pdr5∆
  protein stability index: 2.94 ± 0.1
san1∆
  protein stability index: 3.21 ± 0.062
ubr1∆
  protein stability index: 3.03 ± 0.082

## KTSNIESVPIYSIDEFF [BRR2]
doa10∆
  protein stability index: 2.56 ± 0.062
pdr5∆
  protein stability index: 2.58 ± 0.067
san1∆
  protein stability index: 2.34 ± 0.045
ubr1∆
  protein stability index: 2.13 ± 0.083

## TQKRTHVLKKNPLKNKQ [RPL4A]
pdr5∆
  protein stability index: 2.52 ± 0.22
ubr1∆
  protein stability index: 2.99 ± 0.14

## SRKQKVIKTLTVDVSSP [RPL22B]
doa10∆
  protein stability index: 2.52 ± 0.094
pdr5∆
  protein stability index: 2.6 ± 0.08
san1∆
  protein stability index: 2.36 ± 0.12
ubr1∆
  protein stability index: 2.79 ± 0.058

## RKHRNAQFAGRASIEYY [DIS3]
doa10∆
  protein stability index: 2.99 ± 0.13
pdr5∆
  protein stability index: 3.11 ± 0.072
san1∆
  protein stability index: 2.8 ± 0.13
ubr1∆
  protein stability index: 2.99 ± 0.094

## PFSEGVTFSVMPPKKSW [SMC4]
doa10∆
  protein stability index: 2.48 ± 0.091
pdr5∆
  protein stability index: 2.03 ± 0.074
san1∆
  protein stability index: 2.2 ± 0.11
ubr1∆
  protein stability index: 2.57 ± 0.077

## SSTIDAPAFHTSGKVEL [SRB8]
doa10∆
  protein stability index: 2.9 ± 0.28
san1∆
  protein stability index: 2.94 ± 0.18
ubr1∆
  protein stability index: 2.87 ± 0.082

## EEESLHVFQYANRPRLV [RPC37]
doa10∆
  protein stability index: 1.36 ± 0.058
pdr5∆
  protein stability index: 1.66 ± 0.081
san1∆
  protein stability index: 1.79 ± 0.13
ubr1∆
  protein stability index: 2.21 ± 0.047

## PSTTLFNFGGKSDTVTS [YOR098C/NUP1]
doa10∆
  protein stability index: 2.51 ± 0.065
pdr5∆
  protein stability index: 2.32 ± 0.075
san1∆
  protein stability index: 2.4 ± 0.073
ubr1∆
  protein stability index: 2.92 ± 0.059

## PEIGNRKINLFYLYMLV [SWI1]
doa10∆
  protein stability index: 1.54 ± 0.1
pdr5∆
  protein stability index: 1.32 ± 0.054
san1∆
  protein stability index: 1.1 ± 0.22
ubr1∆
  protein stability index: 2.22 ± 0.094

## NLRLLVEENRVRYTTSV [DLS1]
doa10∆
  protein stability index: 2.33 ± 0.071
pdr5∆
  protein stability index: 2.65 ± 0.056
san1∆
  protein stability index: 2.08 ± 0.079
ubr1∆
  protein stability index: 2.43 ± 0.048

## LEDEKMKFQESLKKVDE [SMC4]
pdr5∆
  protein stability index: 2.08 ± 0.26

## GSELVQKYVGEGARMVR [RPT1]
doa10∆
  protein stability index: 2.57 ± 0.22
pdr5∆
  protein stability index: 2.84 ± 0.085
san1∆
  protein stability index: 3 ± 0.085
ubr1∆
  protein stability index: 2.81 ± 0.05

## ECPVGEFLINEGTPINN [RPN14]
doa10∆
  protein stability index: 2.99 ± 0.1
pdr5∆
  protein stability index: 2.39 ± 0.069
san1∆
  protein stability index: 2.89 ± 0.11
ubr1∆
  protein stability index: 2.31 ± 0.085

## AVFIVPKILIREHERVI [SWP82]
doa10∆
  protein stability index: 1.7 ± 0.085
pdr5∆
  protein stability index: 2.06 ± 0.097
san1∆
  protein stability index: 1.69 ± 0.15
ubr1∆
  protein stability index: 2.1 ± 0.19

## PINLPPQIAQLPLATQQ [SNF5]
doa10∆
  protein stability index: 2.15 ± 0.071
pdr5∆
  protein stability index: 2.49 ± 0.059
san1∆
  protein stability index: 2.46 ± 0.089
ubr1∆
  protein stability index: 2.27 ± 0.053

## LKEVPTYRYVSVSVLVD [RPS25A]
doa10∆
  protein stability index: 2.64 ± 0.079
pdr5∆
  protein stability index: 2.13 ± 0.069
san1∆
  protein stability index: 1.33 ± 0.1
ubr1∆
  protein stability index: 1.66 ± 0.038

## HIMEPCIECQPKAMTDT [HRT1]
doa10∆
  protein stability index: 3.13 ± 0.13
pdr5∆
  protein stability index: 3.25 ± 0.091
san1∆
  protein stability index: 2.94 ± 0.11
ubr1∆
  protein stability index: 3.29 ± 0.077

## CYAPRPSAGPHKLRESL [RPS4A]
doa10∆
  protein stability index: 2.78 ± 0.083
pdr5∆
  protein stability index: 3.12 ± 0.091
san1∆
  protein stability index: 2.87 ± 0.11
ubr1∆
  protein stability index: 3.07 ± 0.072

## GVEVRVTPTKTEVIIRA [RPS3]
doa10∆
  protein stability index: 1.75 ± 0.048
pdr5∆
  protein stability index: 1.73 ± 0.047
san1∆
  protein stability index: 2.55 ± 0.071
ubr1∆
  protein stability index: 1.57 ± 0.036

## DAAEEEKEEEAKEESDD [RPP2B]
doa10∆
  protein stability index: 2.88 ± 0.3
pdr5∆
  protein stability index: 3.22 ± 0.14
san1∆
  protein stability index: 3.09 ± 0.3
ubr1∆
  protein stability index: 3.41 ± 0.078

## FSQKANKTKAVDNTVPS [YOR098C/NUP1]
doa10∆
  protein stability index: 2.15 ± 0.085
pdr5∆
  protein stability index: 1.63 ± 0.056
san1∆
  protein stability index: 1.81 ± 0.1
ubr1∆
  protein stability index: 2.17 ± 0.046

## ERVIVVTGFAEVGPWGS [FAS2]
doa10∆
  protein stability index: 1.16 ± 0.085
pdr5∆
  protein stability index: 1.36 ± 0.083
san1∆
  protein stability index: 2.03 ± 0.11
ubr1∆
  protein stability index: 1.47 ± 0.074

## GNIVAELAQDPQTMEHY [YCS4]
doa10∆
  protein stability index: 2.9 ± 0.1
pdr5∆
  protein stability index: 3.4 ± 0.17
san1∆
  protein stability index: 3.44 ± 0.16
ubr1∆
  protein stability index: 2.07 ± 0.11

## EPSYIFEYLATVMYQRR [PRE4]
doa10∆
  protein stability index: 2.1 ± 0.081
pdr5∆
  protein stability index: 2.46 ± 0.1
san1∆
  protein stability index: 2.26 ± 0.091
ubr1∆
  protein stability index: 2.12 ± 0.079

## LNGILADEMGLGKTIQT [SNF2]
doa10∆
  protein stability index: 2.91 ± 0.11
pdr5∆
  protein stability index: 2.67 ± 0.1
san1∆
  protein stability index: 3.29 ± 0.066
ubr1∆
  protein stability index: 2.56 ± 0.095

## RKCCNHPYLFEGAEPGP [ISW2]
doa10∆
  protein stability index: 3.06 ± 0.064
pdr5∆
  protein stability index: 3.11 ± 0.067
san1∆
  protein stability index: 3.11 ± 0.05
ubr1∆
  protein stability index: 3.2 ± 0.052

## WDLLQSGSQNISEFDSF [RPN12]
doa10∆
  protein stability index: 3.38 ± 0.16
pdr5∆
  protein stability index: 3.14 ± 0.09
san1∆
  protein stability index: 3.05 ± 0.12
ubr1∆
  protein stability index: 3.22 ± 0.067

## DSENFSFEKLYEGMKLG [YMR129W/POM152]
doa10∆
  protein stability index: 3.5 ± 0.11
pdr5∆
  protein stability index: 3.48 ± 0.15
san1∆
  protein stability index: 3.42 ± 0.098
ubr1∆
  protein stability index: 3.29 ± 0.074

## LRRGNYAQRIGSGAPVY [HTA1]
doa10∆
  protein stability index: 2.19 ± 0.21
pdr5∆
  protein stability index: 2.86 ± 0.17
san1∆
  protein stability index: 2.4 ± 0.26

## GRILQNLLHSYMEKGTQ [YML103C/NUP188]
doa10∆
  protein stability index: 2.66 ± 0.14
pdr5∆
  protein stability index: 2.51 ± 0.096
san1∆
  protein stability index: 1.96 ± 0.086
ubr1∆
  protein stability index: 2.51 ± 0.12

## SQRPGARILARSERKRT [ITC1]
doa10∆
  protein stability index: 3.14 ± 0.18
pdr5∆
  protein stability index: 2.79 ± 0.17
san1∆
  protein stability index: 3.07 ± 0.21
ubr1∆
  protein stability index: 2.98 ± 0.2

## ETLENNIVSVLTAGVNS [RPN11]
doa10∆
  protein stability index: 2.5 ± 0.1
pdr5∆
  protein stability index: 2.65 ± 0.076
san1∆
  protein stability index: 2.24 ± 0.11
ubr1∆
  protein stability index: 2.57 ± 0.09

## VVLYNYYLGQYYGCLEN [CSN12]
doa10∆
  protein stability index: 2.5 ± 0.17
pdr5∆
  protein stability index: 2.57 ± 0.15
san1∆
  protein stability index: 2.51 ± 0.11
ubr1∆
  protein stability index: 1.97 ± 0.13

## LYTLVINDAGKAKKLIQ [RPL38]
doa10∆
  protein stability index: 2.06 ± 0.11
pdr5∆
  protein stability index: 2.19 ± 0.098
san1∆
  protein stability index: 1.99 ± 0.1
ubr1∆
  protein stability index: 1.56 ± 0.13

## GIAIGLNKGKKVTQMTP [RPL36B]
pdr5∆
  protein stability index: 1.51 ± 0.2

## TLVNKSTGLKNASDALK [RPS1B]
doa10∆
  protein stability index: 2.87 ± 0.11
pdr5∆
  protein stability index: 3.2 ± 0.11
san1∆
  protein stability index: 3.4 ± 0.092
ubr1∆
  protein stability index: 3.24 ± 0.075

## LVDILPPDSDSSISVMG [RPT3]
doa10∆
  protein stability index: 2.23 ± 0.068
pdr5∆
  protein stability index: 2.27 ± 0.063
san1∆
  protein stability index: 2.24 ± 0.065
ubr1∆
  protein stability index: 2.72 ± 0.055

## EKGNAKMIDFATLSKLK [SIR3]
doa10∆
  protein stability index: 3.15 ± 0.074
pdr5∆
  protein stability index: 3.08 ± 0.057
san1∆
  protein stability index: 3.33 ± 0.037
ubr1∆
  protein stability index: 3.24 ± 0.035

## QRSRRKFSERRKALPKE [DSN1]
doa10∆
  protein stability index: 3.47 ± 0.22
san1∆
  protein stability index: 3.52 ± 0.099

## PLKTELEANGRSLEKVN [SSN2]
doa10∆
  protein stability index: 3.19 ± 0.12
pdr5∆
  protein stability index: 3.34 ± 0.08
san1∆
  protein stability index: 3.22 ± 0.1
ubr1∆
  protein stability index: 3.55 ± 0.08

## EKTYTKAPKIQRLVTPQ [RPS6A]
doa10∆
  protein stability index: 2.62 ± 0.056
pdr5∆
  protein stability index: 2.43 ± 0.055
san1∆
  protein stability index: 2.11 ± 0.064
ubr1∆
  protein stability index: 2.22 ± 0.037

## TSQYGTPSTETAASVFK [PRE3]
doa10∆
  protein stability index: 1.71 ± 0.046
pdr5∆
  protein stability index: 2.29 ± 0.042
san1∆
  protein stability index: 2.1 ± 0.047
ubr1∆
  protein stability index: 2.27 ± 0.045

## CAERVKIQQQQPGYADL [QCR6]
doa10∆
  protein stability index: 3.29 ± 0.13
pdr5∆
  protein stability index: 2.99 ± 0.19
ubr1∆
  protein stability index: 3.09 ± 0.27

## GARPGRVARRNAARKAE [RPS9A]
doa10∆
  protein stability index: 3.3 ± 0.13
pdr5∆
  protein stability index: 3.45 ± 0.17
ubr1∆
  protein stability index: 3 ± 0.098

## PNVSDKYYLEESNVNDS [NUT1]
doa10∆
  protein stability index: 3.2 ± 0.26
pdr5∆
  protein stability index: 2.85 ± 0.15
san1∆
  protein stability index: 3.21 ± 0.096
ubr1∆
  protein stability index: 3.17 ± 0.14

## VRTRGGNKKYRALRIET [RPS8A]
doa10∆
  protein stability index: 2.71 ± 0.032
pdr5∆
  protein stability index: 2.52 ± 0.03
san1∆
  protein stability index: 2.71 ± 0.031
ubr1∆
  protein stability index: 2.853 ± 0.022
